# According to patent US20210388087A1 (Chugai, published 2021):
# Residue numbers refer to the chain shown, from its start. In names and notes the source's numbering stands.
# B1: CE115HA000 K52S one-arm antibody (antibody, human IgG1, kappa, L234A L235A, N297A, name in Kabat numbering)
# heavy: QVQLVESGGGVVQPGRSLRLSCAASGFTFSNAWMHWVRQAPGKGLEWVAQISAKSNNYATYYAESVKGRFTISRDDSKNSLYLQMNSLKTEDTAVYYCRYVHYGAYYGVDAWGQGTTVTVSSASTKGPSVFPLAPSSKSTSGGTAALGCLVKDYFPEPVTVSWNSGALTSGVHTFPAVLQSSGLYSLSSVVTVPSSSLGTQTYICNVNHKPSNTKVDKKVEPKSCDKTHTCPPCPAPEAAGGPSVFLFPPKPKDTLMISRTPEVTCVVVDVSHEDPEVKFNWYVDGVEVHNAKTKPREEQYASTYRVVSVLTVLHQDWLNGKEYKCKVSNKALPAPIEKTISKAKGQPREPQVYTLPPSRCELTKNQVSLSCAVKGFYPSDIAVEWESNGQPENNYKTTPPVLDSDGSFFLVSKLTVDKSRWQQGNVFSCSVMHEALHNHYTQKSLSLSPDYKDDDDK
# chain: EPKSSDKTHTCPPCPAPELLGGPSVFLFPPKPKDTLMISRTPEVTCVVVDVSHEDPEVKFNWYVDGVEVHNAKTKPREEQYNSTYRVVSVLTVLHQDWLNGKEYKCKVSNKALPAPIEKTISKAKGQPREPQVCTLPPSRDELTKNQVSLWCLVKGFYPSDIAVEWESNGQPENNYKTTPPVLDSDGSFFLYSKLTVDKSRWQQGNVFSCSVMHEALHNRYTQKSLSLSP
# light: DIVMTQSPLSLPVTPGEPASISCRSSQSLVHSNRNTYLHWYQQKPGQAPRLLIYKVSNRFSGVPDRFSGSGSGTDFTLKISRVEAEDVGVYYCGQGTQVPYTFGQGTKLEIKRTVAAPSVFIFPPSDEQLKSGTASVVCLLNNFYPREAKVQWKVDNALQSGNSQESVTEQDSKDSTYSLSSTLTLSKADYEKHKVYACEVTHQGLSSPVTKSFNRGEC
# B2: CE115HA000 K52bN one-arm antibody (antibody, human IgG1, kappa, L234A L235A, N297A, name in Kabat numbering)
# heavy: B1 heavy with S52K, K54N
# chain: B1 chain
# light: B1 light
# B3: CE115HA000 K52bA one-arm antibody (antibody, human IgG1, kappa, L234A L235A, N297A, name in Kabat numbering)
# heavy: B1 heavy with S52K, K54A
# chain: B1 chain
# light: B1 light
# B4: CE115HA000 K52bY one-arm antibody (antibody, human IgG1, kappa, L234A L235A, N297A, name in Kabat numbering)
# heavy: B1 heavy with S52K, K54Y
# chain: B1 chain
# light: B1 light
# B5: CE115HA000 K75T one-arm antibody (antibody, human IgG1, kappa, L234A L235A, N297A, name in Kabat numbering)
# heavy: B1 heavy with S52K, K78T
# chain: B1 chain
# light: B1 light
# B6: CE115HA000 N31F one-arm antibody (antibody, human IgG1, kappa, L234A L235A, N297A, name in Kabat numbering)
# heavy: B1 heavy with N31F, S52K
# chain: B1 chain
# light: B1 light
# B7: CE115HA000 K64D one-arm antibody (antibody, human IgG1, kappa, L234A L235A, N297A, name in Kabat numbering)
# heavy: B1 heavy with S52K, K67D
# chain: B1 chain
# light: B1 light
# B8: CE115HA000 N31D one-arm antibody (antibody, human IgG1, kappa, L234A L235A, N297A, name in Kabat numbering)
# heavy: B1 heavy with N31D, S52K
# chain: B1 chain
# light: B1 light
# B9: CE115HA000 L78I one-arm antibody (antibody, human IgG1, kappa, L234A L235A, N297A, name in Kabat numbering)
# heavy: B1 heavy with S52K, L81I
# chain: B1 chain
# light: B1 light
# B10: CE115HA000 N31G one-arm antibody (antibody, human IgG1, kappa, L234A L235A, N297A, name in Kabat numbering)
# heavy: B1 heavy with N31G, S52K
# chain: B1 chain
# light: B1 light
# B11: CE115HA000 K52bL one-arm antibody (antibody, human IgG1, kappa, L234A L235A, N297A, name in Kabat numbering)
# heavy: B1 heavy with S52K, K54L
# chain: B1 chain
# light: B1 light
# B12: CE115HA000 K52bS one-arm antibody (antibody, human IgG1, kappa, L234A L235A, N297A, name in Kabat numbering)
# heavy: B1 heavy with S52K, K54S
# chain: B1 chain
# light: B1 light
# B13: CE115HA000 K52Y one-arm antibody (antibody, human IgG1, kappa, L234A L235A, N297A, name in Kabat numbering)
# heavy: B1 heavy with S52Y
# chain: B1 chain
# light: B1 light
# B14: CE115HA000 K52W one-arm antibody (antibody, human IgG1, kappa, L234A L235A, N297A, name in Kabat numbering)
# heavy: B1 heavy with S52W
# chain: B1 chain
# light: B1 light
# B15: CE115HA000 K75R one-arm antibody (antibody, human IgG1, kappa, L234A L235A, N297A, name in Kabat numbering)
# heavy: B1 heavy with S52K, K78R
# chain: B1 chain
# light: B1 light
# B16: CE115HA000 K64Q one-arm antibody (antibody, human IgG1, kappa, L234A L235A, N297A, name in Kabat numbering)
# heavy: B1 heavy with S52K, K67Q
# chain: B1 chain
# light: B1 light
# B17: CE115HA000 K64S one-arm antibody (antibody, human IgG1, kappa, L234A L235A, N297A, name in Kabat numbering)
# heavy: B1 heavy with S52K, K67S
# chain: B1 chain
# light: B1 light
# B18: CE115HA000 K52bD one-arm antibody (antibody, human IgG1, kappa, L234A L235A, N297A, name in Kabat numbering)
# heavy: B1 heavy with S52K, K54D
# chain: B1 chain
# light: B1 light
# B19: CE115HA000 K64E one-arm antibody (antibody, human IgG1, kappa, L234A L235A, N297A, name in Kabat numbering)
# heavy: B1 heavy with S52K, K67E
# chain: B1 chain
# light: B1 light
# B20: CE115HA000 K52bQ one-arm antibody (antibody, human IgG1, kappa, L234A L235A, N297A, name in Kabat numbering)
# heavy: B1 heavy with S52K, K54Q
# chain: B1 chain
# light: B1 light
# B21: CE115HA000 K52bR one-arm antibody (antibody, human IgG1, kappa, L234A L235A, N297A, name in Kabat numbering)
# heavy: B1 heavy with S52K, K54R
# chain: B1 chain
# light: B1 light
# B22: CE115HA000 K64A one-arm antibody (antibody, human IgG1, kappa, L234A L235A, N297A, name in Kabat numbering)
# heavy: B1 heavy with S52K, K67A
# chain: B1 chain
# light: B1 light
# B23: CE115HA000 N31A one-arm antibody (antibody, human IgG1, kappa, L234A L235A, N297A, name in Kabat numbering)
# heavy: B1 heavy with N31A, S52K
# chain: B1 chain
# light: B1 light
# notes: one-arm antibody: altered VH on pE22Hh, Fc-only chain Kn010G3, GLS3000 on kappa; the same build holds for m3 to m260
# Molecular target: T1, CD3 epsilon homodimer protein (UniProt P07766 23-126)
# T1 construct: immobilized on Sensor chip CM4 by amine coupling; also called CD3 (CD3 epsilon)
# Test: SPR (Biacore T200), CD3 epsilon homodimer on CM4 chip, one-arm antibody as analyte, 25 C;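 further: homodimer attached to the sensor surface via amine coupling, HBS-EP+ used as running buffer during binding runs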
# T1 sequence (P07766 23-126): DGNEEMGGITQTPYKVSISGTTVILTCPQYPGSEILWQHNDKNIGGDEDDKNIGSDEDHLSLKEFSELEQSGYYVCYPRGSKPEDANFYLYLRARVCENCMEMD
row,Binder,ratio of amounts bound (altered form / CE115HA000)
1,B1,0.28
2,B2,0.27
3,B3,0.67
4,B4,0.74
5,B5,0.84
6,B6,0.62
7,B7,0.72
8,B8,0.37
9,B9,1.34
10,B10,0.39
11,B11,0.61
12,B12,0.68
13,B13,0.18
14,B14,0.22
15,B15,1.01
16,B16,0.89
17,B17,0.84
18,B18,0.27
19,B19,0.74
20,B20,0.6
21,B21,1.11
22,B22,0.82
23,B23,0.5
